T1: human CD39 endogenously expressed on Ramos human lymphoma cells (human, UniProt P49961 1-510)
T1 sequence: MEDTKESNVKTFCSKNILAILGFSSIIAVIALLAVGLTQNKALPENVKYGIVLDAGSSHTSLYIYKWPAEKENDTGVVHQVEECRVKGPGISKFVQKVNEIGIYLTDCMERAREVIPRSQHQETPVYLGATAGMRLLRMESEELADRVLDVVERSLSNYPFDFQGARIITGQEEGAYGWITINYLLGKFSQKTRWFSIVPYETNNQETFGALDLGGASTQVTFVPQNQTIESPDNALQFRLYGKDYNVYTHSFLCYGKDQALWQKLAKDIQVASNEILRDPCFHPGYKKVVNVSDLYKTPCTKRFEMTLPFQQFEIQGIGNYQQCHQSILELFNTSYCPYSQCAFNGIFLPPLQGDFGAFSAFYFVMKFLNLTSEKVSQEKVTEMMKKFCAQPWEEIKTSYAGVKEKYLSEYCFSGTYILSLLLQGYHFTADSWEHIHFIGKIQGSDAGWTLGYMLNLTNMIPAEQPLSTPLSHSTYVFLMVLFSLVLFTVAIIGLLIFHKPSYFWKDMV

T2: Human CD39-L2 (human, UniProt O75354 61-484, limits assumed)
T2 construct: Recombinant protein coated on ELISA plates; also called NTPDase6; ENTPD6
T2 sequence: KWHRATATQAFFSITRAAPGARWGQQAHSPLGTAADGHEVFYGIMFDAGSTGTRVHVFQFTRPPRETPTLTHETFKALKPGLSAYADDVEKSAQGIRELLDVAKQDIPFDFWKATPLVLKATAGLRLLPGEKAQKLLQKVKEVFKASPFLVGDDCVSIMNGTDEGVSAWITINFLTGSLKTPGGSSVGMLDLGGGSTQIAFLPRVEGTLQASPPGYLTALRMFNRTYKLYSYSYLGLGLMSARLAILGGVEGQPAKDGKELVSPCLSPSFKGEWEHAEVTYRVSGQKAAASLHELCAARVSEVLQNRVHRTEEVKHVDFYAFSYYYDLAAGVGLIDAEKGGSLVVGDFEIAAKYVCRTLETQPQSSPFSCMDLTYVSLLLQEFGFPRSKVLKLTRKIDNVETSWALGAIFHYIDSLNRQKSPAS

T3: Human CD39-L3 (human, UniProt O75355 44-485, limits assumed)
T3 construct: Recombinant protein coated on ELISA plates; also called NTPDase3; ENTPD3
T3 sequence: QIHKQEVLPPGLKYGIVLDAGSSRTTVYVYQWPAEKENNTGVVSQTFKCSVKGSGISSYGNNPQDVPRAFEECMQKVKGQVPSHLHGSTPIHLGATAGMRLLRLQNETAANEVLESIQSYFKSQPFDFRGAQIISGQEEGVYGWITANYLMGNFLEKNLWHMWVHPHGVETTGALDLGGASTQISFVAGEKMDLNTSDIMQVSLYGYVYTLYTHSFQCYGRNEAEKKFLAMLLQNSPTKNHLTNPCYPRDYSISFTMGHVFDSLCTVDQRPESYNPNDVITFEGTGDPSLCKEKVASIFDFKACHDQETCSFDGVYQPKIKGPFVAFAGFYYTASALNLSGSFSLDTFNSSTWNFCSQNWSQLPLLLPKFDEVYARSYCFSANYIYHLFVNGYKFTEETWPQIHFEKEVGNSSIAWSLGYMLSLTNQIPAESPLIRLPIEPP

T4: Human CD39-L4 (human, UniProt O75356 25-428)
T4 construct: Recombinant protein coated on ELISA plates; also called NTPDase5; ENTPD5
T4 sequence: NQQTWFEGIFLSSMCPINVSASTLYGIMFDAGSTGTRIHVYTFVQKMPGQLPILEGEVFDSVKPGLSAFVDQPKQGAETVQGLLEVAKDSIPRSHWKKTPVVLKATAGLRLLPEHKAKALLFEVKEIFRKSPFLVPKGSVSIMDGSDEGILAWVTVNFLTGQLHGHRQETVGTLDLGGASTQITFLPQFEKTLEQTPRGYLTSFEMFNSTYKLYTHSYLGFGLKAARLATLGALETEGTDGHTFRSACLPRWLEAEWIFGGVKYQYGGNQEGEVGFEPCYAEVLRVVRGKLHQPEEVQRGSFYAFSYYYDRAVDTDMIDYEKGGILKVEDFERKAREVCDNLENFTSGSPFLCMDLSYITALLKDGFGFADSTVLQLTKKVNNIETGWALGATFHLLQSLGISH


Key:
[1] = target: T1, human CD39 endogenously expressed on …; assay: cell-based or functional assay
Human CD39-L2 = target: T2, Human CD39-L2; assay: ELISA, recombinant isoform coated, dose range of antibody
Procedure: (§1) Antibodies were tested for binding to recombinant human CD39 isoforms (Rec-huCD39 isoforms). The CD39 isoforms having amino acid sequences shown in the table below were coated in 96-well plate in PBS 1× at 500 ng/ml or 1 μg/ml at 4° C. overnight. Wells were washed in TBS Tween 20, and further saturated 2H at RT in TBS Blocking buffer (Thermo Fisher Scientific Inc.). Dose range concentration of primary antibody was incubated in TBS blocking buffer for 2 h at RT. Wells were washed in TBS Tween 20. […] Optical density was measured on Enspire at OD=450.

Human CD39-L3 = target: T3, Human CD39-L3; assay: as above
Procedure: as §1

Human CD39-L4 = target: T4, Human CD39-L4; assay: as above
Procedure: as §1

Row | inhibition of CD39 enzymatic activity (AMP generated by Ramos cells, Maldi TOF) [1] [%] | binding result (Human CD39-L2) | binding result (Human CD39-L3) | binding result (Human CD39-L4) | Binder
1 | ≥ 90 | no binding | no binding | no binding | mAb3 (antibody, human IgG1, V domains shown, Produced as Fc silent recombinant human IgG1 with heavy chain N297Q (Kabat EU numbering) and huCk constant domain; also called anti-CD39 antibody mAb3) VH: QVQLVQSGSELKKPGASVKVSCKASGYTFTHYGMNWVRQAPGKGLKWMGWINTYTGEPTYADDFKGRFVFSLDTSVSTAYLQISSLKAEDTAVYYCARRRYEGNYVFYYFDYWGQGTTVTVSS VL: DIQMTQSPSSLSASVGDRVTITCRASENIYSYFSWYQQKPGKAPKLLIYTAKTLAEGVPSRFSGSGSGTDFTLTISSLQPEDFATYYCQHHYVTPYTFGGGTKVEIK
2 | ≥ 90 | no binding | no binding | no binding | mAb2 (antibody, human IgG1, V domains shown, Produced as Fc silent recombinant human IgG1 with heavy chain N297Q (Kabat EU numbering) and huCk constant domain; also called anti-CD39 antibody mAb2) VH: QVQLVQSGSELKKPGASVKVSCKASGYTFTHYGMNWVRQAPGQGLKWMGWINTYTGEPTYADDFKGRFVFSLDTSVSTAYLQISSLKAEDTAVYYCARRRYEGNYVFYYFDYWGQGTTVTVSS VL: DIQMTQSPSSLSASVGDRVTITCRASENIYSYFSWYQQKPGKAPKLLIYTAKTLAEGVPSRFSGSGSGTDFTLTISSLQPEDFATYYCQHHYVTPYTFGGGTKVEIK
3 | ≥ 90 | no binding | no binding | no binding | mAb1 (antibody, human IgG1, V domains shown, Produced as Fc silent recombinant human IgG1 with heavy chain N297Q (Kabat EU numbering) and huCk constant domain; also called anti-CD39 antibody mAb1) VH: QVQLVQSGSELKKPGASVKVSCKASGYTFTHYGMNWVRQAPGQGLEWMGWINTYTGEPTYADDFKGRFVFSLDTSVSTAYLQISSLKAEDTAVYYCARRRYEGNYVFYYFDYWGQGTTVTVSS VL: DIQMTQSPSSLSASVGDRVTITCRASENIYSYFSWYQQKPGKAPKLLIYTAKTLAEGVPSRFSGSGSGTDFTLTISSLQPEDFATYYCQHHYVTPYTFGGGTKVEIK
4 | ≥ 90 | no binding | no binding | no binding | mAb4 (antibody, human IgG1, V domains shown, Produced as Fc silent recombinant human IgG1 with heavy chain N297Q (Kabat EU numbering) and huCk constant domain; also called anti-CD39 antibody mAb4) VH: QIQLVQSGSELKKPGASVKVSCKASGYTFTHYGMNWVRQAPGKGLKWMGWINTYTGEPTYADDFKGRFVFSLDASVSTAYLQISSLKAEDTAVYYCARRRYEGNYVFYYFDYWGQGTTVTVSS VL: DIQMTQSPSSLSASVGDRVTITCRASENIYSYFSWYQQKPGKAPKLLIYTAKTLAEGVPSRFSGSGSGTDFTLTISSLQPEDFATYYCQHHYVTPYTFGGGTKVEIK
5 | ≥ 90 | no binding | no binding | no binding | mAb6 (antibody, human IgG1, V domains shown, Produced as Fc silent recombinant human IgG1 with heavy chain N297Q (Kabat EU numbering) and huCk constant domain; also called anti-CD39 antibody mAb6) VH: QVQLVQSGSELKKPGASVKVSCKASGYTFTHYGMNWVRQAPGKGLKWMGWINTYTGEPTYADDFKGRFVFSLDTSVSTAYLQISSLKAEDTAVYYCARRRYEGNYVFYYFDYWGQGTTVTVSS VL: DIQMTQSPSSLSASVGDRVTITCRASENIYSYFSWYQQKPGKAPKLLVYTAKTLAEGVPSRFSGSGSGTDFTLTISSLQPEDFATYYCQHHYVTPYTFGGGTKVEIK
6 | ≥ 90 | no binding | no binding | no binding | mAb7 (antibody, human IgG1, V domains shown, Produced as Fc silent recombinant human IgG1 with heavy chain N297Q (Kabat EU numbering) and huCk constant domain; also called anti-CD39 antibody mAb7) VH: QIQLVQSGSELKKPGASVKVSCKASGYTFTHYGMNWVRQAPGKGLKWMGWINTYTGEPTYADDFKGRFVFSLDASVSTAYLQISSLKAEDTAVYYCARRRYEGNYVFYYFDYWGQGTTVTVSS VL: DIQMTQSPSSLSASVGDRVTITCRASENIYSYFSWYQQKPGKAPKLLVYTAKTLAEGVPSRFSGSGSGTDFTLTISSLQPEDFATYYCQHHYVTPYTFGGGTKVEIK
7 | ≥ 90 | no binding | no binding | no binding | mAb5 (antibody, human IgG1, V domains shown, Produced as Fc silent recombinant human IgG1 with heavy chain N297Q (Kabat EU numbering) and huCk constant domain; also called anti-CD39 antibody mAb5) VH: QVQLVQSGSELKKPGASVKVSCKASGYTFTHYGMNWVRQAPGQGLKWMGWINTYTGEPTYADDFKGRFVFSLDTSVSTAYLQISSLKAEDTAVYYCARRRYEGNYVFYYFDYWGQGTTVTVSS VL: DIQMTQSPSSLSASVGDRVTITCRASENIYSYFSWYQQKPGKAPKLLVYTAKTLAEGVPSRFSGSGSGTDFTLTISSLQPEDFATYYCQHHYVTPYTFGGGTKVEIK
